Measured values: patent publication US20250084163A1 (published 2025)
Positions count from the first letter of the chain named. Read-outs that look alike come from different tables or passages of the source.

B1: RO6D8-jlv1011 (antibody, V domains shown)
VH: QVQLVQSGAEVKKPGASVKVSCKASGYTFTSKYYHWVRQAPGQGLEWMGIINPTSGSTSYAQKFQGRVTMTRDTSTSTVYMELSSLRSEDTAVYYCARDSSRYSGWYFDLWGQGTTVTVSS
VL: AIQLTQSPSSLSASVGDRVTITCRASQGVSTEIAWYQQKPGKAPKLLIYAASSLQSGVPSRFSGSGSGTDFTLTISSLQPEDFATYYCQQYYGYPIAFGQGTRLEIK
B2: RO6D8wt (antibody, V domains shown)
VH: QVQLVQSGAEVKKPGASVKVSCKASGYTFTNYYMHWVRQAPGQGLEWMGIINPSGGSTSYAQKFQGRVTMTRDTSTSTVYMELSSLRSEDTAVYYCARDSSSWYSGWYFDLWGQGTTVTVSS
VL: B1 VL with L4M, G28D, S30R, T31A, E32H, I33L, Y91F, Y92N, G93S, A97T
B3: RO6D8-s10 (antibody, V domains shown)
VH: B2 VH with D99S, S101R, W103S, S105Y, G106L, Y108V, F109L
VL: B1 VL with L4M, Y91F, Y92N, G93S, A97T
B4: RO6D8-011 (antibody, V domains shown)
VH: B2 VH with S54T, G55S, S57R
VL: B1 VL with L4M, V29I, S30R, E32D, I33L

Columns and labels:
Test in all cases: SPR
[1] = molecular target: T1, Recombinant truncated human his-tag ROR1 extracellular domain protein (UniProt Q01973 30-403)
T1 sequence (Q01973 other isoform, or with tags, fused parts or gaps): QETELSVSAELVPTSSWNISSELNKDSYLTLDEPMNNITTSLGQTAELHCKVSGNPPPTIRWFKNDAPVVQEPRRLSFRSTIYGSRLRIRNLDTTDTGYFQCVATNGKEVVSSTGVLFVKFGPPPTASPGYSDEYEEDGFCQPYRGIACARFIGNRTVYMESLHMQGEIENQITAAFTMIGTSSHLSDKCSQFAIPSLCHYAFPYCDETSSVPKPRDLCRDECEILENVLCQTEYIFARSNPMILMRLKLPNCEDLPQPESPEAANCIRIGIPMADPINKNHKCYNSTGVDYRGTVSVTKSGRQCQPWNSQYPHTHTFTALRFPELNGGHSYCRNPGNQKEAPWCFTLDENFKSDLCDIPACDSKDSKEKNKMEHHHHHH

[2] = molecular target: T1, Recombinant truncated human his-tag …; remark: listed apart in the source
[3] = molecular target: T1, Recombinant truncated human his-tag …; remark: listed apart in the source

Binder	Kd [1]	Kd [2]	Kd [3]
B1	0.796 nM	0.796 nM	
B2	118 nM		118 nM
B3	2.46 nM		2.46 nM
B4	2.48 nM	2.48 nM	
